These results are taken from FireProtDB (doi:10.1021/bi00066a003).

“And” between values parts separate entries of the source, which are not always exact repeats. Equal values may be shown once.

The chains are these.
B1: Phosphoglycerate kinase, P18912 (parent)
chain: MNKKTIRDVDVRGKRVFCRVDFNVPMEQGAITDDTRIRAALPTIRYLIEHGAKVILASHLGRPKGKVVEELRLDAVAKRLGELLERPVAKTNEAVGDEVKAAVDRLNEGDVLLLENVRFYPGEEKNDPELAKAFAELADLYVNDAFGAAHRAHASTEGIAHYLPAVAGFLMEKELEVLGKALSNPDRPFTAIIGGAKVKDKIGVIDNLLEKVDNLIIGGGLAYTFVKALGHDVGKSLLEEDKIELAKSFMEKAKEKGVRFYMPVDVVVADRFANDANTKVVPIDAIPADWSALDIGPKTRELYRDVIRESKLVVWNGPMGVFEMDAFAHGTKAIAEALAEALDTYSVIGGGDSAAAVEKFGLADKMDHISTGGGASLEFMEGKQLPGVVALEDK

Variants of B1 are the subject of this data set. The note with it: Geobacillus stearothermophilus, pH 7.5, 25 °C, Fluorescence, TEA 50 mM, reversible: yes, structure 1PHP, whole UniProt chain shown.

As to MNKKTIRDVDVRGKRVFCRVDFNVPMEQGAITDDTRIRAALPTIRYLIEHGAKVILASHLGRPKGKVVEELRLDAVAKRLGELLERPVAKTNEAVGDEVKAAVDRLNEGDVLLLENVRFYPGEEKNDPELAKAFAELADLYVNDAFGAAHRAHASTEGIAHYLPAVAGFLMEKELEVLGKALSNPDRPFTAIIGGAKVKDKIGVIDNLLEKVDNLIIGGGLAYTFVKALGHDVGKSLLEEDKIELAKSFMEKAKEKGVRFYMPVDVVVADRFANDANTKVVPIDAIPADYSALDIGPKTRELYRDVIRESKLVVWNGPMGVFEMDAFAHGTKAIAEALAEALDTYSVIGGGDSAAAVEKFGLADKMDHISTGGGASLEFMEGKQLPGVVALEDK [W290Y], the unfolding free energy runs as follows: (GdnHCl, transition: 3) 11.4 kcal/mol and 8.2 kcal/mol; (Urea, transition: 3) 8.15 kcal/mol.

In the case of MNKKTIRDVDVRGKRVFCRVDFNVPMEQGAITDDTRIRAALPTIRYLIEHGAKVILASHLGRPKGKVVEELRLDAVAKRLGELLERPVAKTNEAVGDEVKAAVDRLNEGDVLLLENVRFYPGEEKNDPELAKAFAELADLYVNDAFGAAHRAHASTEGIAHYLPAVAGFLMEKELEVLGKALSNPDRPFTAIIGGAKVKDKIGVIDNLLEKVDNLIIGGGLAYTFVKALGHDVGKSLLEEDKIELAKSFMEKAKEKGVRFYMPVDVVVADRFANDANTKVVPIDAIPADYSALDIGPKTRELYRDVIRESKLVVYNGPMGVFEMDAFAHGTKAIAEALAEALDTYSVIGGGDSAAAVEKFGLADKMDHISTGGGASLEWMEGKQLPGVVALEDK [W290Y W315Y F379W], the unfolding free energy is 4.95 kcal/mol and 10.8 kcal/mol and 8.93 kcal/mol (GdnHCl, transition: 4); 3.77 kcal/mol and 10.8 kcal/mol and 8.15 kcal/mol (Urea, transition: 4).
